Patent US6218168A, “Process for preparing O-acetylserine, L-cysteine and L-cysteine-related products” (Consortium fur elektrochemische Inudstrie GmbH, priority 1995, dated 2001)

Tested on: production strain JM15
Assay: Cysteine production in 1 L fermenter, JM15 with plasmid-encoded cysE alleles
Format: cell-based, E. coli
Details: 48 h, JM15 transformed with plasmid
Experimental: Influence of different, plasmid-encoded cysE alleles on the production of L-cysteine or products derived from L-cysteine in a 1 L fermenter using the host strain JM15 20 mL of LB medium (1% tryptone, 0.5% yeast extract, 0.5% NaCl) contained in a 100 mL Erlenmeyer flask were inoculated with a single colony of the production strain JM15 (CGSC#5042) which had been transformed with the respective cysE plasmid.
After having been incubated for 7 hours in a bacterial shaker (30° C., 150 rpm), the respective preliminary cultures were transferred to 100 mL of SM1 medium. The SM1 medium contained 5 g/L glucose, 5 mg/L vitamin B1, 3 g/l KH2 PO4, 12 g/L K2 HPO4, 0.3 g/L MgSO4×7 H2 O, 0.1 g/L NaCl, 5 g/L (NH4)2 SO4, 14.7 mg/L CaCl2×2 H2 O, 2 mg/L FeSO4×2 H2 O, 1 g/L Na3 citrate×2 H2 O, 1 ml/L trace element solution and 25 mg/L tetracycline. The trace element solution was composed of 0.15 g/L Na2 MoO4×2 H2 O, 2.5 g/L H3 BO3, 0.7 g/L CoCl2×6 H2 O, 0.25 g/L CuSO4×5 H2 O, 1.6 g/L MnCl2×4 H2 O and 0.3 g/L ZnSO4×7 H2 O. The cultures were shaken in 1 L Erlenmeyer flasks at 30° C. and at 150 rpm for 17 h. After this incubation, the OD600 was between 4 and 5. The subsequent fermentation was carried out in Braun-Melsungen BIOSTAT M research fermenters. A culturing vessel having a total volume of 2 L was used.
The fermentation medium contained 15 g/L glucose, 5 g/L NaCl, 0.3 g/L MgSO4×7 H2 O, 15 mg/L CaCl2×2 H2 O, 75 mg/L FeSO4×7 H2 O, 1 g/L Na3 citrate×2 H2 O, 1.5 g/L KH2 PO4, 1 mL of trace element solution (see above), 5 mg/L vitamin B1, 2.5 g/L yeast extract (Difco), 2.5 g/L tryptone (Difco) and 25 mg/L tetracycline.
The glucose concentration in the fermenter was initially adjusted to a value of 15 g/L by pumping in a 700 g/L (w/v) (sterilized) glucose solution, and the pH was adjusted to 7.0 by pumping in a 25% NH4 OH solution. After an OD600 of 10 had been reached, 300 mg per hour were supplied from a sterile 100 g/L (w/v) stock solution of thiosulfate. 100 mL of preliminary culture were pumped into the fermenter vessel for the inoculation. The starting volume was approximately 1 L. The cultures were initially stirred at 400 rpm and aerated with 1.5 vvm of compressed air which had been sterilized by passing through a sterile filter. The fermentation was carried out at a temperature of 30° C.
The pH was maintained at a value of 7.0 by means of automatic correction with 25% NH4 OH. The oxygen saturation in the fermentation broth had at no time during the fermentation to fall below 20%; the stirring speed was used to ensure this. The glucose content of the nutrient solution, the optical density and the cysteine content were determined at two- to three-hourly intervals. The glucose content was determined enzymically using a glucose analyzer from YSI. The concentration of the glucose was adjusted to between 10 and 20 g/L by means of continuously feeding in this compound.
The content of cysteine in the medium was determined […] from the cell-free super-natant of the sample using the method of Gaitonde, M. K. (1967), Biochem. J. 104, 627-633.
The fermentation was terminated after 44-50 h.

B1: cysEXI: double mutant Thr167->Ala167, Gly245->Ser245 (protein, UniProt P0A9D4 1-273, looked up, variant T167A G245S)
Serine acetyltransferase: MSCEELEIVWNNIKAEARTLADCEPMLASFYHATLLKHENLGSALSYMLANKLSSPIMPAIAIREVVEEAYAADPEMIASAACDIQAVRTRDPAVDKYSTPLLYLKGFHALQAYRIGHWLWNQGRRALAIFLQNQVSVTFQVDIHPAAKIGRGIMLDHATGIVVGEAAVIENDVSILQSVTLGGTGKSGGDRHPKIREGVMIGAGAKILGNIEVGRGAKIGAGSVVLQPVPPHTTAAGVPARIVSKPDSDKPSMDMDQHFNGINHTFEYGDGI
With B1 the Cysteine yield was 3.4 g/L.
